Laboratory results as given in patent publication US20240041978A1, “LA PROTEIN AS A NOVEL REGULATOR OF OSTEOCLASTOGENESIS” (The U.S.A., as Represented by the Secretary, Department of …, priority 2021, published 2024).
“Also recorded” adds a separate entry of the source. Peptide text beside a SMILES is read from it. * marks the point of attachment. Cbz = O=C(OCc1ccccc1)*; CH2F = FC*

T1: Anx A5 on PS containing liposomes (Homo sapiens, UniProt P08758)
T1 sequence (P08758 1-320): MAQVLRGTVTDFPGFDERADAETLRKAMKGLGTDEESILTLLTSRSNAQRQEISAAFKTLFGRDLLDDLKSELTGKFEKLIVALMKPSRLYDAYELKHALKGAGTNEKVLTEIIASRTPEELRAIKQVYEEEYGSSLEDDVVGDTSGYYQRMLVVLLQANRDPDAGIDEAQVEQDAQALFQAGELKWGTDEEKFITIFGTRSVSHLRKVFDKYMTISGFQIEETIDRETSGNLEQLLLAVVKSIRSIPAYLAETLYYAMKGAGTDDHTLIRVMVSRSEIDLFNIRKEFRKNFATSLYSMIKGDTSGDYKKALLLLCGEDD

B1: La 1-408: recombinant full-length human La protein, N-terminal 6×his tag (protein, listed as Homo sapiens)
chain: MAENGDNEKMAALEAKICHQIEYYFGDFNLPRDKFLKEQIKLDEGWVPLEIMIKFNRLNRLTTDFNVIVEALSKSKAELMEISEDKTKIRRSPSKPLPEVTDEYKNDVKNRSVYIKGFPTDATLDDIKEWLEDKGQVLNIQMRRTLHKAFKGSIFVVFDSIESAKKFVETPGQKYKETDLLILFKDDYFAKKNEERKQNKVEAKLRAKQEQEAKQKLEEDAEMKSLEEKIGCLLKFSGDLDDQTCREDLHILFSNHGEIKWIDFVRGAKEGIILFKEKAKEALGKAKDANNGNLQLRNKEVTWEVLEGEVEKEALKKIIEDQQESLNKWKSKGRRFKGKGKGNKAAQPGSGKGKVQFQGKKTKFASDDEHDEHDENGATGPVKRAREETDKEEPASKQQKTENGAGDQ
modifications: N-terminal 6xHis tag
notes: recombinant full-length human La protein, N-terminal 6×his tag
B2: heat-inactivated La 1-408: recombinant heat-inactivated La 1-408 (protein, UniProt P05455 1-408, looked up)
chain: MAENGDNEKMAALEAKICHQIEYYFGDFNLPRDKFLKEQIKLDEGWVPLEIMIKFNRLNRLTTDFNVIVEALSKSKAELMEISEDKTKIRRSPSKPLPEVTDEYKNDVKNRSVYIKGFPTDATLDDIKEWLEDKGQVLNIQMRRTLHKAFKGSIFVVFDSIESAKKFVETPGQKYKETDLLILFKDDYFAKKNEERKQNKVEAKLRAKQEQEAKQKLEEDAEMKSLEEKIGCLLKFSGDLDDQTCREDLHILFSNHGEIKWIDFVRGAKEGIILFKEKAKEALGKAKDANNGNLQLRNKEVTWEVLEGEVEKEALKKIIEDQQESLNKWKSKGRRFKGKGKGNKAAQPGSGKGKVQFQGKKTKFASDDEHDEHDENGATGPVKRAREETDKEEPASKQQKTENGAGDQ
modifications: full-length heat-inactivated
B3: La 188-375: recombinant amino acids 188-375 of human La (protein, listed as Homo sapiens)
chain: YFAKKNEERKQNKVEAKLRAKQEQEAKQKLEEDAEMKSLEEKIGCLLKFSGDLDDQTCREDLHILFSNHGEIKWIDFVRGAKEGIILFKEKAKEALGKAKDANNGNLQLRNKEVTWEVLEGEVEKEALKKIIEDQQESLNKWKSKGRRFKGKGKGNKAAQPGSGKGKVQFQGKKTKFASDDEHDEHDE
B4: La 1-187: recombinant N-terminal half of La 1-375 (protein, UniProt P05455 1-187, looked up, fragment)
chain: MAENGDNEKMAALEAKICHQIEYYFGDFNLPRDKFLKEQIKLDEGWVPLEIMIKFNRLNRLTTDFNVIVEALSKSKAELMEISEDKTKIRRSPSKPLPEVTDEYKNDVKNRSVYIKGFPTDATLDDIKEWLEDKGQVLNIQMRRTLHKAFKGSIFVVFDSIESAKKFVETPGQKYKETDLLILFKDD

What was measured:
[1] = tested on: human monocyte-derived osteoclasts; experiment: Osteoclast fusion assay (number of fusion events, fluorescence microscopy); type: cell-based; conditions: for osteoclast multinucleation / fusion: screen of La 188-375 peptide library, control no addition; for formation of multinucleated syncytia (osteoclast fusion): recombinant protein ~40 nM added end of day 2 post-RANKL, overnight
Method: Osteoclasts: Elutriated monocytes from healthy donors were obtained. Cells were plated at 2.9×10^5 per cm^2 in 35 mm dishes with polymer coverslip bottoms (Ibidi #81156) for imaging or 35 mm or 10 cm dishes for biochemical experiments in complete media [α-MEM supplemented with 10% Fetal Bovine Serum (FBS) and penicillin-streptomycin-L-glutamine (Gibco Invitrogene #12571063; #26140079 and #10378016, respectively)]. Monocytes were differentiated to M2 macrophages in the presence of 100 ng/ml M-CSF for 6 days and then differentiated with 100 ng/ml M-CSF and 100 ng/ml RANKL for 3 days unless indicated otherwise. RAW 264.7 cells (ATCC, Manassas, VA, #TIB-71) were maintained in DMEM supplemented with 10% FBS to a maximum of 8 passages. RAW 264.7 cells were differentiated to osteoclasts in the presence of 100 ng/ml murine RANKL for 5 days. To separate unfused mononucleated and fused, multinucleated RAW 264.7 cells into separate fractions, advantage was taken of the much stronger adherence of multinucleated cells to culture dish plastic. After washing in PBS, mixed RAW cultures (following RANKL differentiation) were left in Ca^2+ and Mg^2+ free PBS for 10 minutes at room temperature. Culture dishes were then tapped on the lab bench and a large portion of unfused, mononucleated RAW cells were released, and these released cells were collected via centrifugation. This process was repeated 2-4 times until dishes were left with a population of primarily fused, multinucleated syncytia. Mononucleated and multinucleated cell fractions were then processed for biochemical or imaging experiments as described below.
Constructs & Recombinant proteins & Transfection: Recombinant La 1-408, 1-375, 1-375 Q20A_Y24A_D33I, 1-187 and 188-375 were amplified with primers designed with overlapping sequences and inserted between NdeI/HindIII in the V78 pET28A E. coli expression vector, adding to each a N-terminal 6×his affinity tag. La 1-408 was expressed as a recombinant protein in E. coli and purified using IMAC columns by SD Biosciences (San Diego, CA). The remaining constructs were transformed into BL2 (DE3) chemically competent E. coli (Thermo Fisher Scientific) and protein expression was induced with IPTG. Cells were lysed with Bugbuster (Sigma), and 6×his-La proteins were affinity purified using HisPur Cobalt Spin columns (Thermo Fisher Scientific), each according to the manufacturer's instructions. Endotoxin contaminates were depleted from affinity purified 6×his-La proteins using Pierce high-capacity endotoxin removal columns (Thermo Fisher Scientific), according to the manufacturer's instructions. Proteins were then sterile filtered, aliquoted and kept at −80 C.
Plasmids were introduced into primary osteoclasts at day 2 of RANKL stimulation via jetPRIME (Polyplus Transfection). FLAG-La 1-408, FLAG-La 1-375 and FLAG-La 1-375 Q20A_Y24A_D33I plasmids were a gift of the Maraia Lab (NICHD). Briefly, SSB (UniProt P05455) was inserted between HindIII and BamHI the pFLAG-CMV2 vector (Sigma). “Uncleavable” La was produced by taking the FLAG-La 1-408 plasmid and making two point mutations at amino acids D371A and D374A, abrogating the caspase cleavage sites at the C-terminal region of the protein (Emory Integrated Genomics Core). siRNA were introduced into primary osteoclasts after 1 day of RANKL stimulation via Lipofectamine RNAiMAX (Thermo Fisher Scientific). Non-targeted (Cat #4390843) and SSB-targeted (Cat #4392420_ID:s13469) siRNA were introduced at a concentration of 5 ng/ml (Silencer Select, Ambion).
Fusion Assays: Osteoclast fusion in the culture systems was evaluated by fluorescence microscopy (Verma et al., J Biol Chem 293, 254-270, doi:10.1074/jbc.M117.809681 (2018)). Briefly, cells were fixed with 4% paraformaldehyde at timepoints of interest, permeabilized with 0.1% TRITON™ X-100 and blocked with 5% FBS. Cells were then stained with phallodin-ALEXAFLURO®488 and Hoechst to label cells' actin cytoskeleton and nuclei, respectively. […]

[2] = tested on: production of LMW La in human osteoclasts; experiment: La cleavage and localization in differentiating osteoclasts with caspase inhibitor (Western blot, immunofluorescence); type: cell-based; conditions: for production of LMW (cleaved) La: Western blot, differentiating human osteoclasts, Day 3-4 post-RANKL
Method: To identify the functional form of La associated with osteoclastogenesis, the relationship was determined between the appearance of LMW La and fusion between osteoclasts. During apoptotic progression human La is cleaved by caspases at […], removing La's NLS (Rutjes et al., Cell Death Differ 6, 976-986, doi:10.1038/sj.cdd.4400571 (1999); Ayukawa et al., J Biol Chem 275, 34465-34470, doi:10.1074/jbc.M003673200 (2000)).
Biochemical approaches: Cells were lysed on ice via pulse sonication and rotated end over end at 4° C. for 45 minutes in the presence of protease inhibitors (cOmplete, Sigma, #118361700010). Steady-state protein levels were evaluated via SDS-PAGE followed by immunoblotting. Bulk proteins were evaluated via SDS-PAGE followed by silver stain (SilverQuest, Thermo Fisher Scientific). Bands of interest were cut from silver stained gels, destained and evaluated by liquid chromatography coupled with tandem mass spectrometry (Proteomics Core, NHLBI). The selective enrichment of cytosolic vs membrane associated protein fractions was carried out using MEM-PER™ Plus Membrane Protein Extraction Kit (Thermo Fisher Scientific, catalogue #89842) according to the manufacturer's instructions.
Fluorescence Microscopy Imaging: In the immunofluorescence experiments the cells were washed with PBS and fixed with warm freshly prepared 4% formaldehyde in PBS (Sigma, F1268) at 37° C. The cells were washed three times with PBS. To permeabilize the cells, they were incubated for 5 min in 0.1% TRITON™ X100 in PBS. The cells were again washed three times with PBS and placed into PBS with 10% FBS, for 10 min at the room temperature to suppress non-specific binding. Then the cells were incubated with primary antibodies for 1 hour in PBS with 10% FBS. […]

[3] = molecular target: T1, Anx A5 on PS containing liposomes; experiment: Liposome binding assay
Excerpt: Anx A5 binds to PS containing membranes in a Ca^2+-dependent manner. Recombinant La was introduced alone or along with recombinant Anx A5 to PS containing liposomes and pelleted liposomes by centrifugation to evaluate whether La was enriched with liposomes or in supernatant (FIG. 12C).
Liposome binding assay: Multilamellar liposomes were formed from pure PC or 9:1 (w/w) mixture of PC and PS. Both lipid compositions were supplemented with 0.5 mol % of lissamine rhodamine phosphatidylethanolamine. To prepare liposomes, lipid stock in benzene/methanol (95:5) was frozen in liquid nitrogen and freeze-dried overnight using SPEEDVAC™ (Savant). Dried lipid was resuspended in aqueous buffer (100 mM NaCl, 10 mM Hepes, pH 7.0) at 1 mM total lipid concentration and vortexed. Proteins and CaCl2 were added to the liposomes and the mixtures were incubated on ice for 30 minutes. To pellet, liposomes were centrifugated at 15,000 g for 20 minutes to pellet, based on rhodamine fluorescence ˜95% of liposomes. Centrifugated samples were then fractionated into a top, liposome-depleted fraction and a bottom fraction containing liposomes and liposome-bound proteins. Fractions were then solubilized via addition of Laemmli buffer (Bio Rad) and separated via SDS-PAGE, as described above. Recombinant La and recombinant Anx A5 were detected via their n-terminal 6×His tag via α-6×His antibody (Abcam) and signals for soluble vs liposome bound protein fractions were evaluated via densitometry. Data were presented as a percentage of protein signal bound to liposomes where: […]

Molecule	osteoclast multinucleation / fusion [1]	formation of multinucleated syncytia (osteoclast fusion) [1]	other results
COC(=O)C[C@H](NC(=O)[C@H](C)NC(=O)[C@@H](NC(=O)OCc1ccccc1)C(C)C)C(=O)CF [z-VAD, z-VAD-fmk] (Cbz-Val-Ala-Asp(OMe)-CH2F)			ability of osteoclasts to form multinucleated syncytia ([1]; pan caspase inhibitor vs vehicle, Day 3 post-RANKL): significantly perturbed; production of LMW (cleaved) La [2]: blocked; production of LMW (cleaved) La ([2]; listed as z-VAD-fmk): block the production of cleaved La; localization of FL La ([2]; α-FL La immunofluorescence, Day 3): premature retention of FL La within the nuclei
AKLRAKQEQEAKQKLEEDAEMKSLEEKIGC (inhibitory La peptide) [Peptide 2]	inhibit fusion and the formation of multinucleated osteoclasts; also recorded: specifically inhibit		
Anx A5: recombinant annexin A5, PS-binding peripheral membrane protein [reference compound]			pelleting with liposomes ([3]; PS containing liposomes, La with Anx A5, Ca^2+): pelleted with liposomes; pelleting with liposomes ([3]; liposomes lacking PS): neither La nor Anx A5 pelleted
GEVEKEALKKIIEDQQESLNKWKSKGRRFK (inhibitory La peptide) [Peptide 9]	inhibit fusion and the formation of multinucleated osteoclasts; also recorded: specifically inhibit		
B1		significantly promoted	
B2		not observed	
B3	promoted fusion	greatly promoted	
B4		no effect	
